This experiment has as its target T1, aIF2-γ subunit of translation initiation factor aIF2, recombinant, His-tagged (Sulfolobus solfataricus, UniProt Q980A5 1-415).
T1 construct: translation initiation factor 2 subunit gamma (aIF2-γ), Sulfolobus solfataricus
T1 sequence (looked up): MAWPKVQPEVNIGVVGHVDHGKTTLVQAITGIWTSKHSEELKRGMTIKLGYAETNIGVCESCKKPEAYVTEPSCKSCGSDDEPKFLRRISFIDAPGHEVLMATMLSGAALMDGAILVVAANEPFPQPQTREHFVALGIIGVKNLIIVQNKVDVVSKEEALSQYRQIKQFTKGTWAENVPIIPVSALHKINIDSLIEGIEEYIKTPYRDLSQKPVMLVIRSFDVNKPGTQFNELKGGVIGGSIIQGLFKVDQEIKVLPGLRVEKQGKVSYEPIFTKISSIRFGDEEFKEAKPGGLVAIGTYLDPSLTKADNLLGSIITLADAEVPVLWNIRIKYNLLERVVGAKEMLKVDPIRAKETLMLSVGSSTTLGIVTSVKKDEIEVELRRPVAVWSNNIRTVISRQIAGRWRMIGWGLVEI
In words: native gel or EMSA; acidic native polyacrylamide gel electrophoresis of the individual aIF2 subunits and the trimeric complex (Supplementary Figure S3, lanes 1-4). The note with it: both partners purified. On the technique in general: Mobility shift assays separate free from complexed probe on a gel.

Results on two molecules are retold here after paper PMC3936769, “Back to translation: removal of aIF2 from the 5′-end of mRNAs by translation recovery factor in the crenarchaeon Sulfolobus solfataricus” (Nucleic Acids Research, 2013).

B1: aIF2-β subunit of translation initiation factor aIF2, recombinant, His-tagged (natural protein, Sulfolobus solfataricus, UniProt Q97W59 1-139, looked up)
chain: MSSEKEYVEMLDRLYSKLPEKGRKEGTQSLPNMIILNIGNTTIIRNFAEYCDRIRREDKICMKYLLKELAAPGNVDDKGELVIQGKFSSQVINTLMERFLKAYVECSTCKSLDTILKKEKKSWYIVCLACGAQTPVKPL
notes: translation initiation factor 2 subunit beta (aIF2-β), Sulfolobus solfataricus; also called aIF2-ß
Turning to B1, the binding result is listed as “binds”.

B2: aIF2-α subunit of translation initiation factor aIF2, recombinant, His-tagged (natural protein, Sulfolobus solfataricus, UniProt Q97Z79 1-266, looked up)
chain: MIYSRSKLPSEGEILIATVKQVFDYGSYVSLDEYGGLQAFLPWSEVSSKWVKNIRDVLKENRKVIVKVIRVDRRKGTVDVSLKKVTDDERRKKNLQWKKIQRLDKILELVSQKLKLSEKDAWEQVAWKLEAKYGDPITAIEKAVKEGEKILIDAGVPEIWVKPLLEEASKHAEERKVKMSGLITVRTNEPLGVEKIKEVISKALENIEQDYESLLNIKIYTIGAPRYRVDVVGTNPKEASEALNQIISNLIKIGKEENVDISVVKK
notes: translation initiation factor 2 subunit alpha (aIF2-α), Sulfolobus solfataricus
For the molecule B2, the binding result is given as “binds”.
